Test results: patent US20240083986A1 (published 2024)

How the values were obtained:
[1] = target: T1, CHO produced recombinant Bet v 1 containing a S85A mutation with a C-terminal myc-myc hexahistidine tag … (Betula verrucosa (birch)); test: SPR, mAb captured via anti-hFc, 37 C
T1 chain: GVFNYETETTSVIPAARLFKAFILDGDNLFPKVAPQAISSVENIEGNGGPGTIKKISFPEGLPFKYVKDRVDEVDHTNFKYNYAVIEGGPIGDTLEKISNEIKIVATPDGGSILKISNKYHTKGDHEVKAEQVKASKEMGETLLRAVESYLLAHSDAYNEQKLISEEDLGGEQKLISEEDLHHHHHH

[2] = target: T2, European Hornbeam (Car b 1 isoform 2, MyBiosource, Cat #MBS1043940) (European Hornbeam, UniProt P38950 2-160, limits assumed); test: SPR, mAb captured via anti-hFc, 25 C;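 also: related allergen binding to captured purified monoclonal antibodies, rate constants fitted to a one-to-one model with mass transport limitation, KD and t½ calculated from the rates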
T2 construct: Bought reagent
T2 sequence (looked up): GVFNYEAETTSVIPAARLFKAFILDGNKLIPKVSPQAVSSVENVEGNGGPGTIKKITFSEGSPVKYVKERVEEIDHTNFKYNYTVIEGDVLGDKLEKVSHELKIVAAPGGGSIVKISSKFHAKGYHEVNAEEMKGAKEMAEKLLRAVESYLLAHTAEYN

[3] = target: T3, Celery (Api g 1, MyBiosource, Cat #MBS1171376) (Celery, UniProt P49372 1-154, limits assumed); test: SPR, mAb captured via anti-hFc, 25 C;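 also: Anti-Bet v 1 monoclonal antibodies probed on a Biacore 4000 in HBS-ET buffer at pH 7.4, rate constants fitted to a 1:1 model with mass transport limitation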
T3 construct: Bought reagent
T3 sequence (looked up): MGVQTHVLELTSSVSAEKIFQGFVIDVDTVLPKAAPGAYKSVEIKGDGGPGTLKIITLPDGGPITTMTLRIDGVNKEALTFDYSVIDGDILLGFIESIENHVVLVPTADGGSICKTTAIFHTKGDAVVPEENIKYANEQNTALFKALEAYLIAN

[4] = target: T1, CHO produced recombinant Bet v 1 …; test: SPR, mAb captured via anti-hFc, 25 C
[5] = target: T4, European Hornbeam (Car b 1 isoform 1A & 1B, MyBiosource, Cat #MBS1200018) (European Hornbeam, UniProt P38949 2-160); test: SPR, mAb captured via anti-hFc, 25 C
T4 construct: Bought reagent
T4 sequence (looked up): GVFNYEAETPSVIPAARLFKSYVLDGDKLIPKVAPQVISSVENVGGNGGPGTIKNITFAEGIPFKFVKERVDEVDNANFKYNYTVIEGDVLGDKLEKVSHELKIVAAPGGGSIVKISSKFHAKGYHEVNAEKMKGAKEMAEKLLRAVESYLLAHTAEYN

[6] = target: T5, Alder (Aln g 1, MyBiosource, Cat #MBS1041484) (Alder, UniProt P38948 2-160, limits assumed); test: SPR, mAb captured via anti-hFc, 25 C
T5 construct: Bought reagent
T5 sequence (looked up): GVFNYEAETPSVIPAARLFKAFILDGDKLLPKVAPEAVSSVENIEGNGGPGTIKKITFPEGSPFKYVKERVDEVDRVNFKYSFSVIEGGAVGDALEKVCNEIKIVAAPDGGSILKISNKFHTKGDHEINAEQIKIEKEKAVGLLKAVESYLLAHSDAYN

[7] = target: T6, Apple (Mal d 1, MyBiosource, Cat #MBS1224919) (Apple, UniProt P43211 2-159, limits assumed); test: SPR, mAb captured via anti-hFc, 25 C;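 also: biacore 4000 SPR, related allergen binding to purified anti-Bet v 1 mAbs, HBS-ET running buffer pH 7.4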
T6 construct: Bought reagent
T6 sequence (looked up): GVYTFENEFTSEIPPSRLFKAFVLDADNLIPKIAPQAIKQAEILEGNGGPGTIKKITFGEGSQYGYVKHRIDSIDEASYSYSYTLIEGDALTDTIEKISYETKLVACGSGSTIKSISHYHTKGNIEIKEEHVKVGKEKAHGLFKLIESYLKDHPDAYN

Binder | 100 nM natural Bet v 1-MHH Bound (RU) [1] | Kd [1] | koff [1] | kon [1] | t½ [1] | 100 nM Analyte Bound (RU) [2] | Kd [2] | koff [2] | kon [2] | t½ [2] | 100 nM Analyte Bound (RU) [3] | binding result [3] | 100 nM natural Bet v 1- MMH Bound (RU) [4] | Kd [4] | koff [4] | kon [4] | 100 nM Analyte Bound (RU) [5] | 100 nM Analyte Bound (RU) [6] | 100 nM Analyte Bound (RU) [7] | binding result [7] | also measured
H4H16979P (antibody, human IgG4, V domains shown, Fully human antibody with human IgG4 Fc (H4H prefix)) VH: QVQLVQSGAEVKKPGASVKVSCKASGYTFIAYYLHWVRQAPGQGLEWMGLLNPYTGGSYYTQKFQGRVTMTRDTSIDTAYMELNSLRSDDTAIYYCARDKRSYYIPYAFEIWGQGTMVTVSS VL: not shown | 56 RU | 1.58 nM | 0.00073 s⁻¹ | 462000 M⁻¹ s⁻¹ | 16 min | 114 RU | 2.48 nM | 0.00241 s⁻¹ | 971000 M⁻¹ s⁻¹ | 4.8 min | 0 RU | no binding (tested: 100 nM) | 46 RU | 0.804 nM | 0.00023 s⁻¹ | 286000 M⁻¹ s⁻¹ | 1 RU | 0 RU | 1 RU | no binding (tested: 100 nM) | t½ [4]: 50 min; binding result [5]: no binding (tested: 100 nM); binding result [6]: no binding (tested: 100 nM)
H4H17001P (antibody, human IgG4, V domains shown, Fully human antibody with human IgG4 Fc (H4H prefix)) VH: QVQLVESGGGLVKPGGSLRLSCAASGFTFSDYYMNWIRQAPGKGLEWISLISSSGSAIYYSDSVKGRFTISRDNARKSLYLQVNSLRAEDTAVYYCARDRGEWALGAYYYGLDVWGQGTTVTVSS VL: DIVMTQSPLSLPVTPGEPASISCRSSQSLLHSDGYNYLDWYLQKSGQSPQLLIYLGSNRASGVPDRFSGSGSGTDFTLKISRMEAEDVGVYYCMQALQTPYTFGQGTKLEIK | 2 RU | – | – | – | – | 157 RU | 1.58 nM | 0.0032 s⁻¹ | 2.03e+06 M⁻¹ s⁻¹ | 3.6 min | -1 RU | – | 1 RU | – | – | – | 0 RU | 49 RU | 0 RU | no binding (tested: 100 nM) | binding result [4]: no binding (tested: 100 nM); binding result [5]: no binding (tested: 100 nM); Kd [6]: 105 nM; koff [6]: 0.0278 s⁻¹; kon [6]: 264000 M⁻¹ s⁻¹; t½ [6]: 0.4 min
H4H17027P (antibody, human IgG4, V domains shown, Fully human antibody with human IgG4 Fc (H4H prefix)) VH: EVQLVESGGGLVQPGGSLRLSCAASGFTFRNYAMHWVRQAPGEGLEWVAAIYRNSDSIDYADSVKGRFTISRDNAKNSLYLQMNSLKTEDTALYYCAKDEGFLEYFDSWGQGTLVTVSS VL: EIVLTQSPGTLSLSPGERASLSCRASQSVSSSFLAWYQQKPGQAPRLLIYGVSSRFIGIPDRFSGGGSGTDFTLTITRLEPEDFAVYYCQQYGRSPWTFGQGTKVEIK | 78 RU | 6.8 nM | 0.00116 s⁻¹ | 171000 M⁻¹ s⁻¹ | 9.9 min | 42 RU | 98.9 nM | 0.00577 s⁻¹ | 58400 M⁻¹ s⁻¹ | 2 min | 0 RU | no binding (tested: 100 nM) | 63 RU | 2.9 nM | 0.000319 s⁻¹ | 110000 M⁻¹ s⁻¹ | 41 RU | 9 RU | 0 RU | no binding (tested: 100 nM) | t½ [4]: 36 min; Kd [5]: 214 nM; koff [5]: 0.00673 s⁻¹; kon [5]: 31400 M⁻¹ s⁻¹; t½ [5]: 1.7 min; Kd [6]: 69.2 nM; koff [6]: 0.00643 s⁻¹; kon [6]: 92900 M⁻¹ s⁻¹; t½ [6]: 1.8 min
H4H16991P (antibody, human IgG4, V domains shown, Fully human antibody with human IgG4 Fc (H4H prefix)) VH: QVQLVQSGAEVRKPGASVKVSCKASGYTFTGYYLHWVRQAPGQGLEWMGLINPNTGGTNFAQKFQGRVTMTRDSSISAAYMELSRLRSDDTAVYYCARQHWNRYFDNWGQGTLVTVSS VL: DIQMTQSPSTLSASVGDRVTITCRASQSVGNWLAWYQQKPGKAPKLLIQEASSIESGVPSRFSGSGSGTEFTLIVSSLQPDDFATYYCQQYNSYSWTFGHGTKVEIK | 67 RU | 1.48 nM | 0.00106 s⁻¹ | 717000 M⁻¹ s⁻¹ | 11 min | 93 RU | 37.8 nM | 0.0404 s⁻¹ | 1.07e+06 M⁻¹ s⁻¹ | 0.3 min | 0 RU | no binding (tested: 100 nM) | 61 RU | 0.735 nM | 0.000287 s⁻¹ | 390000 M⁻¹ s⁻¹ | 1 RU | 3 RU | 0 RU | no binding (tested: 100 nM) | t½ [4]: 40 min; binding result [5]: no binding (tested: 100 nM); binding result [6]: no binding (tested: 100 nM)
H4H17015P (antibody, human IgG4, V domains shown, Fully human antibody with human IgG4 Fc (H4H prefix)) VH: QVQLQESGPGLVKPSQTLSLTCTVSGGSISSADHYWSWIRQQPGKGLEWIGYISYRGTTYYNPTLESRVSISVDTFKNQFSLMLHSVTVADTAVYYCAKVLQGLVRFRDYGFDVWGQGTTVTVSS VL: DIQLTQSPPFLSASVGDRVTITCWASQDISSYLAWYQQNPGKSPKLLIYDAFTLHTGVPSRFSGSGSGTEFTLTISSLQPEDFATFYCQHLYSFPFTFGPGTKVDIK | 89 RU | 2.02 nM | 0.000899 s⁻¹ | 445000 M⁻¹ s⁻¹ | 13 min | 2 RU | – | – | – | – | 0 RU | no binding (tested: 100 nM) | 76 RU | 1.03 nM | 0.000281 s⁻¹ | 272000 M⁻¹ s⁻¹ | 0 RU | 8 RU | 0 RU | no binding (tested: 100 nM) | binding result [2]: no binding (tested: 100 nM); t½ [4]: 41 min; binding result [5]: no binding (tested: 100 nM); binding result [6]: no binding (tested: 100 nM)
H4H16987P (antibody, human IgG4 S228P, kappa, V domains shown, human IgG4 Fc; also called MAB4) VH: EVQLVESGGGLVQPGGSLRLSCAASGFTVSSNSMSWVRQAPGEGLEWVSVIFSGGITYYSDSVKGRFTISRHNSKNTLYLQMNSLRTEDTAVYYCARHSNWNFDAFDIWGQGTMVTVSS VL: DIQMTQSPSSLSASVGDRVTITCRASQSFDTYLNWYQQKPGKAPNLLIYATSSLQSGVPSRFSGSGSGTDFTLTISSLQPEDFGTYYCQQSYSIPYTFGQGTKLEIKR | 36 RU | 106 nM | 0.0847 s⁻¹ | 795000 M⁻¹ s⁻¹ | 0.14 min | 153 RU | 5.56 nM | 0.00561 s⁻¹ | 1.01e+06 M⁻¹ s⁻¹ | 2.1 min | 1 RU | no binding (tested: 100 nM) | 46 RU | 43.8 nM | 0.0215 s⁻¹ | 490000 M⁻¹ s⁻¹ | 0 RU | 139 RU | 2 RU | no binding (tested: 100 nM) | t½ [4]: 0.5 min; binding result [5]: no binding (tested: 100 nM); Kd [6]: 3.94 nM; koff [6]: 0.00087 s⁻¹; kon [6]: 221000 M⁻¹ s⁻¹; t½ [6]: 13 min
